The text below walks through data of patent US8013115B1, “Use of stabilised synthetic compounds in immunoassay” (Bio-Rad Pasteur, priority 1999, dated 2011).

[ ]: non-standard residue; d: D form. Hx = not defined here

The nature of data set [1]: Linearity of the dilution curves / dilutability, ELISA signal (RLU) versus dilution. As to the method: (§1) The stability of the compounds PEP 5, PEP 9 and PEP 10 was evaluated by ELISA assay, with chemiluminescence reading (signal expressed in Relative Luminescence Units or RLU), with the aid of the automated device Access® from the company Beckman, distributed by Bio-Rad (Marnes la Coquette, France), and then compared with that of a prior art noncyclized reference biepitopic compound (TRP 1116 Ac) analysed in the same manner.
Standard for acceptance of the dilutions: the ratio experimental signal/theoretical signal at a given dilution should be equal to 1.00±0.2, for the compound to be dilutable. The dilutions giving signals of less than 100 000 RLU units should not be taken into account.
Results expressed in signal units (RLU)
On the technique in general: ELISA stands for enzyme-linked immunosorbent assay.

Data set [2] is classed as physicochemical. As for the experimental part: as §1
For data set [3], the target named is antibodies of the ELISA assay with chemiluminescence reading on the automated device Access (Beckman). Nature of the data set: ELISA immunoassay, chemiluminescence, Access device; compound diluted 1/100 000.
The target is the same in data set [4]. Kind of data set: ELISA immunoassay, chemiluminescence, Access device; compound diluted 1/20 000.
The target is the same in data set [5]. Kind of data set: ELISA immunoassay, chemiluminescence, Access device; compound diluted 1/10 000.
The target is the same in data set [6]. Kind of data set: ELISA immunoassay, chemiluminescence, Access device; compound diluted 1/40 000.
The target is the same in data set [7]. Nature of the data set: ELISA immunoassay, chemiluminescence, Access device; compound diluted 1/50 000.
Data set [8] shares this target. Kind of data set: ELISA immunoassay, chemiluminescence, Access device; compound diluted 1/300 000.

For “Ac-GSSNYRAYA-(TEPH)-AKK-Hx-PLELAGLG-(FAEL)-QDLCRQ-NH2 (SEQ ID NO: 6) (Ac-GSSNYRAYATEPHAKK[Hx]PLELAGLGFAELQDLCRQ-NH2; not fully specified; printed as Ac-GSSNYRAYA-(TEPH)-AKK-Hx-PLELAGLG-(FAEL)-QDLCRQ-NH2; reading uncertain; also: TEPH, Hx, FAEL described as non-natural linkers) [TRP 1116 Ac]”, the Experimental signal is given as 11 039 697 RLU in data set [1] (dilution 1/10 000); 3 779 387 RLU in data set [1] (dilution 1/20 000); 1 573 457 RLU in data set [1] (dilution 1/40 000); 1 125 417 RLU in data set [1] (dilution 1/50 000); 471 714 RLU in data set [1] (dilution 1/100 000); 132 054 RLU in data set [1] (dilution 1/300 000). Further, the “Stability ratio signal at DO + 24 H/signal at DO” value in data set [2] turned out to be 0.77.

B1: peptide TRP 1116 Ac: Ac-…-(TEPH)-AKK-Hx-PLELAGLG-(FAEL)-QDLCRQ-NH2 (peptide)
peptide: Ac-GSSNYRAYATEPHAKK[Hx]PLELAGLGFAELQDLCRQ-NH2
modifications: reading uncertain; also: printed as Ac-GSSNYRAYA-(TEPH)-AKK-Hx-PLELAGLG-(FAEL)-QDLCRQ-NH2
As for B1, the Experimental signal (RLU) stood at 472000 RLU in data set [3]; 3.78e+06 RLU in data set [4]; 1.1e+07 RLU in data set [5]; 1.57e+06 RLU in data set [6]; 1.13e+06 RLU in data set [7]; 132000 RLU in data set [8].
